# From paper PMC9482650, “Quantitative fragmentomics allow affinity mapping of interactomes” (Nature Communications, 2022)
# T1: DLG3_1, Q92796
# T1 sequence (Q92796 125-227, limits assumed, looked up): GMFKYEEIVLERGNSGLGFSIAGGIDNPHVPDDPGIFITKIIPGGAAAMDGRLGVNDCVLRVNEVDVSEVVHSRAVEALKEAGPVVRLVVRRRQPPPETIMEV
# T2: DLG3_2, Q92796
# T2 sequence (Q92796 221-321, limits assumed, looked up): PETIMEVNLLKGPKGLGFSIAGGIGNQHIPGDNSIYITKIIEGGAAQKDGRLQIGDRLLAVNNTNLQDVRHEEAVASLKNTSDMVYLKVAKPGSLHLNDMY
# T3: LIN7A, O14910
# T3 sequence (O14910 103-200, limits assumed, looked up): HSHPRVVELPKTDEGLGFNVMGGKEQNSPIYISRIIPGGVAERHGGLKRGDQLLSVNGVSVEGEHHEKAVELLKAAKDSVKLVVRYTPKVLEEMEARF
# T4: ARHGEF11, O15085
# T4 sequence (O15085 42-136, limits assumed, looked up): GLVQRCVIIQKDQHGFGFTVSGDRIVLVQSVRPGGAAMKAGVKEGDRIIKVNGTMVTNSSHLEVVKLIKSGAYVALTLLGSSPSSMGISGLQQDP
# T5: RADIL, Q96JH8
# T5 sequence (Q96JH8 971-1071, limits assumed, looked up): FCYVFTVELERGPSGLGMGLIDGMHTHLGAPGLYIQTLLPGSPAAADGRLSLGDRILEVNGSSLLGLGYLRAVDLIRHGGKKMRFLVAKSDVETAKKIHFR
# T6: SIPA1L2, Q9P2F8
# T6 sequence (Q9P2F8 945-1036, limits assumed, looked up): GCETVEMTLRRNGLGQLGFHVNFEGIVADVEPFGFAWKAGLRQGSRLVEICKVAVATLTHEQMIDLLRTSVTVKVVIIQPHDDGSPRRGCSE
# T7: MPP6, Q9NZW5
# T7 sequence (Q9NZW5 125-219, limits assumed, looked up): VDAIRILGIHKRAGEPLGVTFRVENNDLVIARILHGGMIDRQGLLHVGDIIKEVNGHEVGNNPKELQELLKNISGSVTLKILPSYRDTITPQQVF
# T8: GRIP1_5, Q9Y3R0
# T8 sequence (Q9Y3R0 568-668, limits assumed, looked up): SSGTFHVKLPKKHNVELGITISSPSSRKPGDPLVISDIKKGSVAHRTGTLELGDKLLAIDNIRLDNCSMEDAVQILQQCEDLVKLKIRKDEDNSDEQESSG
# T9: SHANK1, Q9Y566
# T9 sequence (Q9Y566 658-767, limits assumed, looked up): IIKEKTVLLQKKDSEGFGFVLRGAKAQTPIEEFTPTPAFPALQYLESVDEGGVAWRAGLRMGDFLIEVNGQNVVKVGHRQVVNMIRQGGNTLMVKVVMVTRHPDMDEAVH
# Target: T1, DLG3_1, Q92796
# Assay: holdup assay
# Design: key: below the threshold = too weak to quantify, mostly under pKd 3.1 to 4
# Conditions: plain residues with an end cap or a label only (N-terminal biotin on a linker: ado-ado)
row,Binder,pKd
1,"SNAGNTATKA [NOSTRIN, Q8IVI9]",below the threshold

# Target: DLG1_1, Q12959
# Assay: holdup assay
# Design: key: below the threshold = too weak to quantify, mostly under pKd 3.1 to 4
# Conditions: plain residues with an end cap or a label only (N-terminal biotin on a linker: ado-ado)
row,Binder,pKd
1,"SNAGNTATKA [NOSTRIN, Q8IVI9]",below the threshold

# Target: T2, DLG3_2, Q92796
# Assay: holdup assay
# Design: key: below the threshold = too weak to quantify, mostly under pKd 3.1 to 4
# Conditions: plain residues with an end cap or a label only (N-terminal biotin on a linker: ado-ado)
row,Binder,pKd
1,"SNAGNTATKA [NOSTRIN, Q8IVI9]",4.25

# Target: MAGI2_2, Q86UL8
# Assay: holdup assay
# Design: key: below the threshold = too weak to quantify, mostly under pKd 3.1 to 4
# Conditions: plain residues with an end cap or a label only (N-terminal biotin on a linker: ado-ado)
# Chain of MAGI2_2, Q86UL8 (Q86UL8 410-522): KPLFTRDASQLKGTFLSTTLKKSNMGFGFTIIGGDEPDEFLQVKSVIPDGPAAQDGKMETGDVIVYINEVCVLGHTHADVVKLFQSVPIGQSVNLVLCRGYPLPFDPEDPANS
row,Binder,pKd
1,"SNAGNTATKA [NOSTRIN, Q8IVI9]",3.56

# Target: SCRIB_3, Q14160
# Assay: holdup assay
# Design: key: below the threshold = too weak to quantify, mostly under pKd 3.1 to 4
# Conditions: plain residues with an end cap or a label only (N-terminal biotin on a linker: ado-ado)
# Chain of SCRIB_3, Q14160 (Q14160 999-1103): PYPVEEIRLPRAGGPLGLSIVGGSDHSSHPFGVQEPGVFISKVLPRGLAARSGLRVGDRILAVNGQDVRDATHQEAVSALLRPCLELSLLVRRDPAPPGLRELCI
row,Binder,pKd
1,"SNAGNTATKA [NOSTRIN, Q8IVI9]",below the threshold

# Target: LDB3, O75112
# Assay: holdup assay
# Design: key: below the threshold = too weak to quantify, mostly under pKd 3.1 to 4
# Conditions: plain residues with an end cap or a label only (N-terminal biotin on a linker: ado-ado)
# Chain of LDB3, O75112 (O75112 1-94): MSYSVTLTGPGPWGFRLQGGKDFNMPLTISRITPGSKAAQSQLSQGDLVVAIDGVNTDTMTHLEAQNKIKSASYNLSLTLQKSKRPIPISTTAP
row,Binder,pKd
1,"SNAGNTATKA [NOSTRIN, Q8IVI9]",below the threshold

# Target: T3, LIN7A, O14910
# Assay: holdup assay
# Design: key: below the threshold = too weak to quantify, mostly under pKd 3.1 to 4
# Conditions: plain residues with an end cap or a label only (N-terminal biotin on a linker: ado-ado)
row,Binder,pKd
1,"SNAGNTATKA [NOSTRIN, Q8IVI9]",below the threshold

# Target: IL16_1, Q14005
# Assay: holdup assay
# Design: key: below the threshold = too weak to quantify, mostly under pKd 3.1 to 4
# Conditions: plain residues with an end cap or a label only (N-terminal biotin on a linker: ado-ado)
# Chain of IL16_1, Q14005 (Q14005 210-306): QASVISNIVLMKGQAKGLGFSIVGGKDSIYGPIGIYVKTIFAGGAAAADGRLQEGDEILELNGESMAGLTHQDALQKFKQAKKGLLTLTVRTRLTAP
row,Binder,pKd
1,"SNAGNTATKA [NOSTRIN, Q8IVI9]",below the threshold

# Target: TJP1_2, Q07157
# Assay: holdup assay
# Design: key: below the threshold = too weak to quantify, mostly under pKd 3.1 to 4
# Conditions: plain residues with an end cap or a label only (N-terminal biotin on a linker: ado-ado)
# Chain of TJP1_2, Q07157 (Q07157 181-274): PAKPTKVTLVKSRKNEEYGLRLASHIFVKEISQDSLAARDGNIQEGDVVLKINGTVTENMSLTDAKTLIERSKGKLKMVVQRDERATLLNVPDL
row,Binder,pKd
1,"SNAGNTATKA [NOSTRIN, Q8IVI9]",below the threshold

# Target: GORASP2, Q9H8Y8
# Assay: holdup assay
# Design: key: below the threshold = too weak to quantify, mostly under pKd 3.1 to 4
# Conditions: plain residues with an end cap or a label only (N-terminal biotin on a linker: ado-ado)
row,Binder,pKd
1,"SNAGNTATKA [NOSTRIN, Q8IVI9]",below the threshold

# Target: DLG1_3, Q12959
# Assay: holdup assay
# Design: key: below the threshold = too weak to quantify, mostly under pKd 3.1 to 4
# Conditions: plain residues with an end cap or a label only (N-terminal biotin on a linker: ado-ado)
row,Binder,pKd
1,"SNAGNTATKA [NOSTRIN, Q8IVI9]",below the threshold

# Target: T4, ARHGEF11, O15085
# Assay: holdup assay
# Design: key: below the threshold = too weak to quantify, mostly under pKd 3.1 to 4
# Conditions: plain residues with an end cap or a label only (N-terminal biotin on a linker: ado-ado)
row,Binder,pKd
1,"SNAGNTATKA [NOSTRIN, Q8IVI9]",below the threshold

# Target: T5, RADIL, Q96JH8
# Assay: holdup assay
# Design: key: below the threshold = too weak to quantify, mostly under pKd 3.1 to 4
# Conditions: plain residues with an end cap or a label only (N-terminal biotin on a linker: ado-ado)
row,Binder,pKd
1,"SNAGNTATKA [NOSTRIN, Q8IVI9]",3.57

# Target: TJP2_1, Q9UDY2
# Assay: holdup assay
# Design: key: below the threshold = too weak to quantify, mostly under pKd 3.1 to 4
# Conditions: plain residues with an end cap or a label only (N-terminal biotin on a linker: ado-ado)
# Chain of TJP2_1, Q9UDY2 (Q9UDY2 24-128): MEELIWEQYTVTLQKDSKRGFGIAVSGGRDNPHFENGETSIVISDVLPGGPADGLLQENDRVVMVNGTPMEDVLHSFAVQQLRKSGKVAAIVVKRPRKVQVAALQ
row,Binder,pKd
1,"SNAGNTATKA [NOSTRIN, Q8IVI9]",below the threshold

# Target: T6, SIPA1L2, Q9P2F8
# Assay: holdup assay
# Design: key: below the threshold = too weak to quantify, mostly under pKd 3.1 to 4
# Conditions: plain residues with an end cap or a label only (N-terminal biotin on a linker: ado-ado)
row,Binder,pKd
1,"SNAGNTATKA [NOSTRIN, Q8IVI9]",below the threshold

# Target: MAGI1_2, Q96QZ7
# Assay: holdup assay
# Design: key: below the threshold = too weak to quantify, mostly under pKd 3.1 to 4
# Conditions: plain residues with an end cap or a label only (N-terminal biotin on a linker: ado-ado)
# Chain of MAGI1_2, Q96QZ7 (Q96QZ7 456-580): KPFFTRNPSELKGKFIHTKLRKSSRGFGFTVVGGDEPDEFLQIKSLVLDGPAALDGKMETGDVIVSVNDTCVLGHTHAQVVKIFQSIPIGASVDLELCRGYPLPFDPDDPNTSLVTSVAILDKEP
row,Binder,pKd
1,"SNAGNTATKA [NOSTRIN, Q8IVI9]",below the threshold

# Target: SCRIB_2, Q14160
# Assay: holdup assay
# Design: key: below the threshold = too weak to quantify, mostly under pKd 3.1 to 4
# Conditions: plain residues with an end cap or a label only (N-terminal biotin on a linker: ado-ado)
# Chain of SCRIB_2, Q14160 (Q14160 857-960): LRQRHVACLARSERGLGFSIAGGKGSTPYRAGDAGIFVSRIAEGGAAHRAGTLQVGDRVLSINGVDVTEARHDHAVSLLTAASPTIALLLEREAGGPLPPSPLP
row,Binder,pKd
1,"SNAGNTATKA [NOSTRIN, Q8IVI9]",below the threshold

# Target: T7, MPP6, Q9NZW5
# Assay: holdup assay
# Design: key: below the threshold = too weak to quantify, mostly under pKd 3.1 to 4
# Conditions: plain residues with an end cap or a label only (N-terminal biotin on a linker: ado-ado)
row,Binder,pKd
1,"SNAGNTATKA [NOSTRIN, Q8IVI9]",below the threshold

# Target: AHNAK1, Q09666
# Assay: holdup assay
# Design: key: below the threshold = too weak to quantify, mostly under pKd 3.1 to 4
# Conditions: plain residues with an end cap or a label only (N-terminal biotin on a linker: ado-ado)
# Chain of AHNAK1, Q09666 (Q09666 4-100): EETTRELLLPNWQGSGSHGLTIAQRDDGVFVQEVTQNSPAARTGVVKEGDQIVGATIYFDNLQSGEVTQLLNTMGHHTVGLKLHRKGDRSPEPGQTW
row,Binder,pKd
1,"SNAGNTATKA [NOSTRIN, Q8IVI9]",below the threshold

# Target: PDLIM1, O00151
# Assay: holdup assay
# Design: key: below the threshold = too weak to quantify, mostly under pKd 3.1 to 4
# Conditions: plain residues with an end cap or a label only (N-terminal biotin on a linker: ado-ado)
# Chain of PDLIM1, O00151 (O00151 1-87): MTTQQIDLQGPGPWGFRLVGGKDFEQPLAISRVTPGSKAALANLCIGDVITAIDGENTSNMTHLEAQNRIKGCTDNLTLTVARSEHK
row,Binder,pKd
1,"SNAGNTATKA [NOSTRIN, Q8IVI9]",below the threshold

# Target: FRMPD3, Q5JV73
# Assay: holdup assay
# Design: key: below the threshold = too weak to quantify, mostly under pKd 3.1 to 4
# Conditions: plain residues with an end cap or a label only (N-terminal biotin on a linker: ado-ado)
# Chain of FRMPD3, Q5JV73 (Q5JV73 12-100): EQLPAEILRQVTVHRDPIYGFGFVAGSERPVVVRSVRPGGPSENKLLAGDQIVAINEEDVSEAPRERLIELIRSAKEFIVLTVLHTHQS
row,Binder,pKd
1,"SNAGNTATKA [NOSTRIN, Q8IVI9]",below the threshold

# Target: DLG4_2, P78352
# Assay: holdup assay
# Design: key: below the threshold = too weak to quantify, mostly under pKd 3.1 to 4
# Conditions: plain residues with an end cap or a label only (N-terminal biotin on a linker: ado-ado)
# Chain of DLG4_2, P78352 (P78352 155-259): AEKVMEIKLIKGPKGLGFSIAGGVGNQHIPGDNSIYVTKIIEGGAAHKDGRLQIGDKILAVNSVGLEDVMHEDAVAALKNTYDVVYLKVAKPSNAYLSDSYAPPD
row,Binder,pKd
1,"SNAGNTATKA [NOSTRIN, Q8IVI9]",below the threshold

# Target: T8, GRIP1_5, Q9Y3R0
# Assay: holdup assay
# Design: key: below the threshold = too weak to quantify, mostly under pKd 3.1 to 4
# Conditions: plain residues with an end cap or a label only (N-terminal biotin on a linker: ado-ado)
row,Binder,pKd
1,"SNAGNTATKA [NOSTRIN, Q8IVI9]",below the threshold

# Target: GOPC, Q9HD26
# Assay: holdup assay
# Design: key: below the threshold = too weak to quantify, mostly under pKd 3.1 to 4
# Conditions: plain residues with an end cap or a label only (N-terminal biotin on a linker: ado-ado)
row,Binder,pKd
1,"SNAGNTATKA [NOSTRIN, Q8IVI9]",below the threshold

# Target: T9, SHANK1, Q9Y566
# Assay: holdup assay
# Design: key: below the threshold = too weak to quantify, mostly under pKd 3.1 to 4
# Conditions: plain residues with an end cap or a label only (N-terminal biotin on a linker: ado-ado)
row,Binder,pKd
1,"SNAGNTATKA [NOSTRIN, Q8IVI9]",below the threshold

# Target: DLG4_3, P78352
# Assay: holdup assay
# Design: key: below the threshold = too weak to quantify, mostly under pKd 3.1 to 4
# Conditions: plain residues with an end cap or a label only (N-terminal biotin on a linker: ado-ado)
# Chain of DLG4_3, P78352 (P78352 306-403): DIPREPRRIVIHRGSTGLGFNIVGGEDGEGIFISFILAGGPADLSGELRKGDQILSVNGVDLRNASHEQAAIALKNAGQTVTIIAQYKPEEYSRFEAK
row,Binder,pKd
1,"SNAGNTATKA [NOSTRIN, Q8IVI9]",3.5

# Target: MAGI3_2, Q5TCQ9
# Assay: holdup assay
# Design: key: below the threshold = too weak to quantify, mostly under pKd 3.1 to 4
# Conditions: plain residues with an end cap or a label only (N-terminal biotin on a linker: ado-ado)
# Chain of MAGI3_2, Q5TCQ9 (Q5TCQ9 398-503): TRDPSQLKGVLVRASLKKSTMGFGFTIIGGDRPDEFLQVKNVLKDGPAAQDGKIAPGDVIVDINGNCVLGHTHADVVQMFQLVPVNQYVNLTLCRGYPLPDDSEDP
row,Binder,pKd
1,"SNAGNTATKA [NOSTRIN, Q8IVI9]",below the threshold

# Target: GRASP, Q7Z6J2
# Assay: holdup assay
# Design: key: below the threshold = too weak to quantify, mostly under pKd 3.1 to 4
# Conditions: plain residues with an end cap or a label only (N-terminal biotin on a linker: ado-ado)
# Chain of GRASP, Q7Z6J2 (Q7Z6J2 96-193): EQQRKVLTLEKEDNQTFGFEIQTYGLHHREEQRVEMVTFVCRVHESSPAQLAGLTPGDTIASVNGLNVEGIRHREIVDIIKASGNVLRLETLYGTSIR
row,Binder,pKd
1,"SNAGNTATKA [NOSTRIN, Q8IVI9]",below the threshold
